Like-named read-outs stand apart in the source and are kept apart here.
Legend:
[1] = target: Human serum albumin (HSA) (Homo sapiens) (UniProt P02768); conditions: Nap-dU at all n positions, plate ELISA, buffer SB18, 37 C
[2] = tested on: K-RAS G12D G12D, P01116-2; conditions: Nap-dU at all n positions; plate ELISA, buffer SB18, 37 C, R2 97.1

## GACTAGCATAAGTCCGGATGGCAGCTTTATGCCG [AD006]
[1]; R2 75.9
  Kd: 939 nM

## GCATAAGTCCGGATGGCAGCTTTATGC [AD008]
[2]
  Kd: 287 nM

## GCATAAGTCCGGATGGCAGCTTTATGCCGACC [AD007]
[1]; R2 97.0
  Kd: 536 nM

— patent publication US20240336926
